Patent publication US20110263454A1, “Methods of Identifying Functional Characteristics of Promoters, Transcription Modifying Proteins and Transcription Modulating Agents” (Salk Institute for Biological Studies, priority 2008, published 2011)

B1: RVRb: Rev-Erb β (NR1D2, alternative name RVR), cDNA driver (protein, UniProt Q14995 1-579, looked up)
Nuclear receptor subfamily 1 …: MEVNAGGVIAYISSSSSASSPASCHSEGSENSFQSSSSSVPSSPNSSNSDTNGNPKNGDLANIEGILKNDRIDCSMKTSKSSAPGMTKSHSGVTKFSGMVLLCKVCGDVASGFHYGVHACEGCKGFFRRSIQQNIQYKKCLKNENCSIMRMNRNRCQQCRFKKCLSVGMSRDAVRFGRIPKREKQRMLIEMQSAMKTMMNSQFSGHLQNDTLVEHHEQTALPAQEQLRPKPQLEQENIKSSSPPSSDFAKEEVIGMVTRAHKDTFMYNQEQQENSAESMQPQRGERIPKNMEQYNLNHDHCGNGLSSHFPCSESQQHLNGQFKGRNIMHYPNGHAICIANGHCMNFSNAYTQRVCDRVPIDGFSQNENKNSYLCNTGGRMHLVCPMSKSPYVDPHKSGHEIWEEFSMSFTPAVKEVVEFAKRIPGFRDLSQHDQVNLLKAGTFEVLMVRFASLFDAKERTVTFLSGKKYSVDDLHSMGAGDLLNSMFEFSEKLNALQLSDEEMSLFTAVVLVSADRSGIENVNSVEALQETLIRALRTLIMKNHPNEASIFTKLLLKLPDLRSLNNMHSEELLAFKVHP
B2: RORg: RAR-related Orphan Receptor γ (NR1F3), cDNA driver (protein, UniProt P51449 1-518, looked up)
Nuclear receptor ROR-gamma: MDRAPQRQHRASRELLAAKKTHTSQIEVIPCKICGDKSSGIHYGVITCEGCKGFFRRSQRCNAAYSCTRQQNCPIDRTSRNRCQHCRLQKCLALGMSRDAVKFGRMSKKQRDSLHAEVQKQLQQRQQQQQEPVVKTPPAGAQGADTLTYTLGLPDGQLPLGSSPDLPEASACPPGLLKASGSGPSYSNNLAKAGLNGASCHLEYSPERGKAEGRESFYSTGSQLTPDRCGLRFEEHRHPGLGELGQGPDSYGSPSFRSTPEAPYASLTEIEHLVQSVCKSYRETCQLRLEDLLRQRSNIFSREEVTGYQRKSMWEMWERCAHHLTEAIQYVVEFAKRLSGFMELCQNDQIVLLKAGAMEVVLVRMCRAYNADNRTVFFEGKYGGMELFRALGCSELISSIFDFSHSLSALHFSEDEIALYTALVLINAHRPGLQEKRKVEQLQYNLELAFHHHLCKTHRQSILAKLPPKGKLRSLCSQHVERLQIFQHLHPIVVQAAFPPLYKELFSTETESPVGLSK
B3: RORa: RAR-related Orphan Receptor α (NR1F1), cDNA driver (protein, UniProt P35398 1-523, looked up)
Nuclear receptor ROR-alpha: MESAPAAPDPAASEPGSSGADAAAGSRETPLNQESARKSEPPAPVRRQSYSSTSRGISVTKKTHTSQIEIIPCKICGDKSSGIHYGVITCEGCKGFFRRSQQSNATYSCPRQKNCLIDRTSRNRCQHCRLQKCLAVGMSRDAVKFGRMSKKQRDSLYAEVQKHRMQQQQRDHQQQPGEAEPLTPTYNISANGLTELHDDLSNYIDGHTPEGSKADSAVSSFYLDIQPSPDQSGLDINGIKPEPICDYTPASGFFPYCSFTNGETSPTVSMAELEHLAQNISKSHLETCQYLREELQQITWQTFLQEEIENYQNKQREVMWQLCAIKITEAIQYVVEFAKRIDGFMELCQNDQIVLLKAGSLEVVFIRMCRAFDSQNNTVYFDGKYASPDVFKSLGCEDFISFVFEFGKSLCSMHLTEDEIALFSAFVLMSADRSWLQEKVKIEKLQQKIQLALQHVLQKNHREDGILTKLICKVSTLRALCGRHTEKLMAFKAIYPDIVRLHFPPLYKELFTSEFEPAMQIDG
B4: RVRa: Rev-Erb α (NR1D1), cDNA driver (protein, UniProt P20393 1-614, looked up)
Nuclear receptor subfamily 1 …: MTTLDSNNNTGGVITYIGSSGSSPSRTSPESLYSDNSNGSFQSLTQGCPTYFPPSPTGSLTQDPARSFGSIPPSLSDDGSPSSSSSSSSSSSSFYNGSPPGSLQVAMEDSSRVSPSKSTSNITKLNGMVLLCKVCGDVASGFHYGVHACEGCKGFFRRSIQQNIQYKRCLKNENCSIVRINRNRCQQCRFKKCLSVGMSRDAVRFGRIPKREKQRMLAEMQSAMNLANNQLSSQCPLETSPTQHPTPGPMGPSPPPAPVPSPLVGFSQFPQQLTPPRSPSPEPTVEDVISQVARAHREIFTYAHDKLGSSPGNFNANHASGSPPATTPHRWENQGCPPAPNDNNTLAAQRHNEALNGLRQAPSSYPPTWPPGPAHHSCHQSNSNGHRLCPTHVYAAPEGKAPANSPRQGNSKNVLLACPMNMYPHGRSGRTVQEIWEDFSMSFTPAVREVVEFAKHIPGFRDLSQHDQVTLLKAGTFEVLMVRFASLFNVKDQTVMFLSRTTYSLQELGAMGMGDLLSAMFDFSEKLNSLALTEEELGLFTAVVLVSADRSGMENSASVEQLQETLLRALRALVLKNRPLETSRFTKLLLKLPDLRTLNNMHSEKLLSFRVDAQ

Legend:
mUCP1 promoter = experiment: NHR-promoter luciferase screen, mUCP1 promoter; type: cell-based, mouse; conditions: for Luc. act., normalized to lacZ / Normalized Luc. act., normalized to control: mUCP1 promoter reporter, co-transfected HR, with or without its ligand; for Normalized Luc. act., normalized to control: relative to control; for luciferase activity normalized to lacZ activity and to a control, mUCP!: mUCP! promoter-luciferase, CV-1 cells, NHR +/- ligand, control = 1.00
Method: (§1) The use, feasibility, and reproducibility of the functional NHR-promoter screen in a 48-well format have been tested validated. Briefly, there were co-expressed 50 ng of each NHR/NHR homodimer or NHR/RXR heterodimer with 100 ng promoter/luciferase construct and 50 ng of LacZ (as a control for transfection efficiency) in CV-1 cells using Fugene HD (Roche) as a transfection reagent (alternatively or additionally, a CMV-YFP construct can be used as a transfection control). Each of the nuclear hormone receptors that were used in these experiments was cloned into a pcDNA3.1 vector and comprised a C-terminally linked V5H6 tag. Twenty-four hours after transfection, appropriate ligands were added, where applicable, (see Table 5 for various ligands and concentrations and after 48 hrs, samples were assayed for luciferase and LacZ activity. To measure for luciferase activity 15 ul of sample was added to 30 ul of luciferase buffer (20 mM tricine, 1.07 mM MgCarbonate, 2.67 mM MgSulfate, 0.1 mM Naz-EDTA, 5 mM DTT, 5 mM ATP, 0.15 mg/ml CoA, 0.5 mM Luciferin), mixed briefly, and run in a Perkin Elmer Victor 5 luminometer. Thus, the functional NHR-promoter screen was used to observe the transcriptional activity of 29 promoters from various physiological pathways including inflammation, lipid and sugar metabolism, cholesterol transport, xenobiotic metabolism, and circadian rhythm.
(§2) The promoters that facilitate transcription of the indicated gene products that were tested using the protocols described herein are listed in the first row of the table. The nuclear hormone receptors and, where applicable, ligands that were assayed for their transcriptional effects on the promoters are listed in the first column of the table. The data represent the luciferase activity of each sample normalized to both the lacZ activity of that sample and to a control, e.g., no NHR or ligand, as customary in the art. As described previously, these normalizations allow the transcriptional activity of each reporter cell to be compared to other samples.
(§3) Tables 7-40 show the transcriptional effects of the hormone receptors, and, where applicable, ligands (orphan receptors are screened without ligand), on each individual promoter. […] The control data of each table are shown in their last rows.

hIFNg promoter = experiment: NHR-promoter luciferase screen, hIFNg promoter; type: cell-based, human; conditions: for Luc. act., normalized to lacZ / Normalized Luc. act., normalized to control: IFNg promoter, HR component without or with ligand; for hIFNg promoter reporter activity: transcription factor +/- ligand, control = 1.00
Method: as §1, §2, §3

mGhrelin promoter = experiment: NHR-promoter luciferase screen, mGhrelin promoter; type: cell-based, mouse; conditions: for Luc. act., normalized to lacZ / Normalized Luc. act., normalized to control: Table 8, mGhrelin; for Results of assays of transcription factor (+/- ligand) with mGhrelin: Table 6d, luciferase activity relative to control (control = 1.00)
Method: as §1, §2, §3

MCP-1 promoter = experiment: NHR-promoter luciferase screen, MCP-1 promoter; type: cell-based; conditions: for Normalized Luc. act., normalized to control / Luc. act., normalized to lacZ: MCP-1 promoter reporter; for Normalized Luc. act., normalized to control: HR without or with its ligand, relative to control; for Luc. act., normalized to lacZ: hormone receptor (HR) without or with its ligand; for mMCP-1 promoter reporter activity: transcription factor +/- ligand, control = 1.00
Method: as §1, §2, §3

hPPARg2 promoter = experiment: NHR-promoter luciferase screen, hPPARg2 promoter; type: cell-based, human; conditions: for Luc. act., normalized to lacZ / Normalized Luc. act., normalized to control: PPARG2 promoter, hormone receptor with or without its ligand; for Normalized Luc. act., normalized to control: relative to control; for Results of assays of transcription factor (+/- ligand) with hPPARg2: Table 6d, luciferase activity relative to control (control = 1.00)
Method: as §1, §2, §3

hG6PD promoter = experiment: NHR-promoter luciferase screen, hG6PD promoter; type: cell-based, human; conditions: for Luc. act., normalized to lacZ / Normalized Luc. act., normalized to control: G6PD promoter reporter, co-transfected HR, without or with its ligand; for Normalized Luc. act., normalized to control: relative to control; for luciferase activity normalized to lacZ activity and to a control, hG6PD: hG6PD promoter-luciferase, CV-1 cells, NHR +/- ligand, control = 1.00
Method: as §1, §2, §3

Molecule | Luc. act., normalized to lacZ (mUCP1 promoter) | Normalized Luc. act., normalized to control (mUCP1 promoter) | luciferase activity normalized to lacZ activity and to a control, mUCP! (mUCP1 promoter) | Luc. act., normalized to lacZ (hIFNg promoter) | Normalized Luc. act., normalized to control (hIFNg promoter) | hIFNg promoter reporter activity (hIFNg promoter) | Luc. act., normalized to lacZ (mGhrelin promoter) | Normalized Luc. act., normalized to control (mGhrelin promoter) | Results of assays of transcription factor (+/- ligand) with mGhrelin (mGhrelin promoter) | Normalized Luc. act., normalized to control (MCP-1 promoter) | Luc. act., normalized to lacZ (MCP-1 promoter) | mMCP-1 promoter reporter activity (MCP-1 promoter) | Luc. act., normalized to lacZ (hPPARg2 promoter) | Normalized Luc. act., normalized to control (hPPARg2 promoter) | Results of assays of transcription factor (+/- ligand) with hPPARg2 (hPPARg2 promoter) | Luc. act., normalized to lacZ (hG6PD promoter) | Normalized Luc. act., normalized to control (hG6PD promoter) | luciferase activity normalized to lacZ activity and to a control, hG6PD (hG6PD promoter)
B1 | 4.3 | 1.0 | 0.96 | 19.5 | 1.2 | 1.22 | 126.8 | 2.4 | 2.43 | 1.6 | 170.4 | 1.59 | 1.0 | 0.5 | 0.48 | 55.5 | 1.5 | 1.48
B2 | 2.8 | 0.6 | 0.62 | 17.9 | 1.1 | 1.12 | 109.2 | 2.1 | 2.09 | 2.8 | 301.2 | 2.81 | 19.2 | 9.6 | 9.59 | 81.5 | 2.2 | 2.18
B3 | 1.7 | 0.4 | 0.38 | 8.8 | 0.6 | 0.55 | 46.6 | 0.9 | 0.89 | 1.4 | 150.7 | 1.41 | 8.4 | 4.2 | 4.19 | 74.0 | 2.0 | 1.98
B4 | 3.8 | 0.8 | 0.85 | 17.9 | 1.1 | 1.13 | 79.3 | 1.5 | 1.52 | 1.4 | 149.4 | 1.40 | 1.5 | 0.8 | 0.76 | 45.9 | 1.2 | 1.23
